The text below walks through data of article PMC2879644.

In the assay the target is Biotinylated histone H3 peptide (aa 21-44) tri-methylated on K27 (UniProt P68431). In words: pull-down.

The substance “GST-SUMO1-fused Pc2(1-100) (from UniProt O00257 1-100)” registered a fold change of the amount bound against Pc2 (1-100) of more than 4 fold.
